The data set concerns the molecule itself. As to the kind of experiment: SEC; HiLoad Superdex 200 HR column, 20 mM Na-Hepes, 200 mM NaCl, pH 7.0, 0.7 mL/min, 4 °C; relative molecular mass of the oligomeric forms estimated from a calibration curve with standard proteins.

B1: human phenylalanine hydroxylase (enzyme, UniProt P00439 1-452, looked up)
chain: MSTAVLENPGLGRKLSDFGQETSYIEDNCNQNGAISLIFSLKEEVGALAKVLRLFEENDVNLTHIESRPSRLKKDEYEFFTHLDKRSLPALTNIIKILRHDIGATVHELSRDKKKDTVPWFPRTIQELDRFANQILSYGAELDADHPGFKDPVYRARRKQFADIAYNYRHGQPIPRVEYMEEEKKTWGTVFKTLKSLYKTHACYEYNHIFPLLEKYCGFHEDNIPQLEDVSQFLQTCTGFRLRPVAGLLSSRDFLGGLAFRVFHCTQYIRHGSKPMYTPEPDICHELLGHVPLFSDRSFAQFSQEIGLASLGAPDEYIEKLATIYWFTVEFGLCKQGDSIKAYGAGLLSSFGELQYCLSEKPKLLPLELEKTAIQNYTVTEFQPLYYVAESFNDAKEKVRNFAATIPRPFSVRYDPYTQRIEVLDNTQQLKILADSINSEIGILCSALQKIK
notes: human phenylalanine hydroxylase (hPAH), expressed in E. coli as a fusion protein; a His tag is inferred from pTrcHis and the Ni resin; The tetrameric fraction from SEC was used as the fusion protein; also called hPAH; Human PAH; source: E. coli, fusion protein, purified (Ni-chelating resin, SEC)
One may read the stoichiometry N as a count of units in the complex or per binding partner. Turning to B1, the “stoichiometry N” value is 4.

These data come from article PMC8000282, “In Silico and In Vitro Tailoring of a Chitosan Nanoformulation of a Human Metabolic Enzyme” (Pharmaceutics, 2021).
